Among the data in article PMC11446282 are Experimental % binding values, retold here.

The test system of this assay is PP2A-B55α. As to the kind of experiment: Single alanine mutational scan, YFP-tagged interactors immunoprecipitated from HeLa cells, Western blot. It is filed as binding, human. Particulars: single alanine mutant of YFP-tagged PME1. As for the experimental part:
Standard cloning techniques were used throughout. Point mutations were introduced by whole plasmid polymerase chain reaction (PCR). All constructs were fully sequenced. Synthetic DNA was purchased from GeneArt, Life Technologies and cloned into pcDNA5/FRT/TO (Invitrogen) expression vector containing YFP, resulting in the indicated YFP fusion proteins. These constructs were transiently transfected into HeLa cells 24 hours before harvesting cells. Cells were lysed in lysis buffer [50 mM tris-HCl (pH 7.5), 50 mM NaCl, 1 mM EDTA, 1 mM […], and 0.1% NP-40]. Complexes were immunoprecipitated at 4°C in lysis buffer with green fluorescent protein (GFP)–Trap (ChromoTek) and washed in lysis buffer. Precipitated protein complexes were washed three times in lysis buffer, eluted in 2× SDS sample buffer, and subjected to Western blotting or MS as indicated.
(In western blotting, separated proteins are transferred to a membrane and probed.)

B1: PME1 M8: PME1, M8 to alanine (protein, UniProt Q9Y570 2-386, looked up, variant M8A)
Protein phosphatase …: SALEKSAHLGRLPSRPPLPGSGGSQSGAKMRMGPGRKRDFSPVPWSQYFESMEDVEVENETGKDTFRVYKSGSEGPVLLLLHGGGHSALSWAVFTAAIISRVQCRIVALDLRSHGETKVKNPEDLSAETMAKDVGNVVEAMYGDLPPPIMLIGHSMGGAIAVHTASSNLVPSLLGLCMIDVVEGTAMDALNSMQNFLRGRPKTFKSLENAIEWSVKSGQIRNLESARVSMVGQVKQCEGITSPEGSKSIVEGIIEEEEEDEEGSESISKRKKEDDMETKKDHPYTWRIELAKTEKYWDGWFRGLSNLFLSCPIPKLLLLAGVDRLDKDLTIGQMQGKFQMQVLPQCGHAVHEDAPDKVAEAVATFLIRHRFAEPIGGFQCVFPGC
As for B1, the Experimental % binding is 2%.

B2: PME1 G11: PME1, G11 to alanine (protein, UniProt Q9Y570 2-386, looked up, variant G11A)
Protein phosphatase …: SALEKSMHLARLPSRPPLPGSGGSQSGAKMRMGPGRKRDFSPVPWSQYFESMEDVEVENETGKDTFRVYKSGSEGPVLLLLHGGGHSALSWAVFTAAIISRVQCRIVALDLRSHGETKVKNPEDLSAETMAKDVGNVVEAMYGDLPPPIMLIGHSMGGAIAVHTASSNLVPSLLGLCMIDVVEGTAMDALNSMQNFLRGRPKTFKSLENAIEWSVKSGQIRNLESARVSMVGQVKQCEGITSPEGSKSIVEGIIEEEEEDEEGSESISKRKKEDDMETKKDHPYTWRIELAKTEKYWDGWFRGLSNLFLSCPIPKLLLLAGVDRLDKDLTIGQMQGKFQMQVLPQCGHAVHEDAPDKVAEAVATFLIRHRFAEPIGGFQCVFPGC
Molecule B2 gave an Experimental % binding of 108%.

B3: PME1 L10: PME1, L10 to alanine (protein, UniProt Q9Y570 2-386, looked up, variant L10A)
Protein phosphatase …: SALEKSMHAGRLPSRPPLPGSGGSQSGAKMRMGPGRKRDFSPVPWSQYFESMEDVEVENETGKDTFRVYKSGSEGPVLLLLHGGGHSALSWAVFTAAIISRVQCRIVALDLRSHGETKVKNPEDLSAETMAKDVGNVVEAMYGDLPPPIMLIGHSMGGAIAVHTASSNLVPSLLGLCMIDVVEGTAMDALNSMQNFLRGRPKTFKSLENAIEWSVKSGQIRNLESARVSMVGQVKQCEGITSPEGSKSIVEGIIEEEEEDEEGSESISKRKKEDDMETKKDHPYTWRIELAKTEKYWDGWFRGLSNLFLSCPIPKLLLLAGVDRLDKDLTIGQMQGKFQMQVLPQCGHAVHEDAPDKVAEAVATFLIRHRFAEPIGGFQCVFPGC
On to B3, for which the Experimental % binding is on record as 52%.

B4: PME1 H9: PME1, H9 to alanine (protein, UniProt Q9Y570 2-386, looked up, variant H9A)
Protein phosphatase …: SALEKSMALGRLPSRPPLPGSGGSQSGAKMRMGPGRKRDFSPVPWSQYFESMEDVEVENETGKDTFRVYKSGSEGPVLLLLHGGGHSALSWAVFTAAIISRVQCRIVALDLRSHGETKVKNPEDLSAETMAKDVGNVVEAMYGDLPPPIMLIGHSMGGAIAVHTASSNLVPSLLGLCMIDVVEGTAMDALNSMQNFLRGRPKTFKSLENAIEWSVKSGQIRNLESARVSMVGQVKQCEGITSPEGSKSIVEGIIEEEEEDEEGSESISKRKKEDDMETKKDHPYTWRIELAKTEKYWDGWFRGLSNLFLSCPIPKLLLLAGVDRLDKDLTIGQMQGKFQMQVLPQCGHAVHEDAPDKVAEAVATFLIRHRFAEPIGGFQCVFPGC
With B4, the Experimental % binding came to 88%.

B5: PME1 R12: PME1, R12 to alanine (protein, UniProt Q9Y570 2-386, looked up, variant R12A)
Protein phosphatase …: SALEKSMHLGALPSRPPLPGSGGSQSGAKMRMGPGRKRDFSPVPWSQYFESMEDVEVENETGKDTFRVYKSGSEGPVLLLLHGGGHSALSWAVFTAAIISRVQCRIVALDLRSHGETKVKNPEDLSAETMAKDVGNVVEAMYGDLPPPIMLIGHSMGGAIAVHTASSNLVPSLLGLCMIDVVEGTAMDALNSMQNFLRGRPKTFKSLENAIEWSVKSGQIRNLESARVSMVGQVKQCEGITSPEGSKSIVEGIIEEEEEDEEGSESISKRKKEDDMETKKDHPYTWRIELAKTEKYWDGWFRGLSNLFLSCPIPKLLLLAGVDRLDKDLTIGQMQGKFQMQVLPQCGHAVHEDAPDKVAEAVATFLIRHRFAEPIGGFQCVFPGC
With B5, the Experimental % binding was 10%.
